Data from the nanobody polyreactivity screen of Harvey et al. (2022).

Assay: yeast display, Sf9 membrane polyspecificity reagent, FACS + sequencing; frameworks hold sequencing errors
How it was run: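 Nanobodies from a synthetic yeast display library (Saccharomyces cerevisiae BJ5465), induced 36–48 hours with galactose, were stained 1 hour at 4 °C with 10% biotinylated, detergent-solubilized Sf9 membrane reagent, enriched on streptavidin microbeads, then FACS-sorted. Anti-HA (expression) and streptavidin (reagent binding) fluorescence set low and high (top ~1%) gates. Polyreactivity labels come from the gate of origin. Genes were colony-PCR amplified, MiSeq 2 × 250 sequenced and filtered by CDR length.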

| Sequence | polyreactivity (PSR sort gate) |
| --- | --- |
| QVQLVESGGGLVKAGGSLRLSCAASGSIFGRYAMGWYRQAPGKERELVAAISSGGRTYADSVKGRFTISRDNAKNTVYLQMNSLNPEDTAVYYCNARYDGRNSVGPYLGYNYWGQGTQVTVSS | high polyreactivity |
| QVQLVESGGGLVQAGGSLRLSFAASGRNFYRYAMGWYRQAPGKERELVAAISRGGRTNYADSVKGRFTISRDNAKNTGYLQMNSLKPEDTAVYYCAVTNFGALYDYWGQGTQVTVSS | high polyreactivity |
| QVQLVESGGGLVQAGGSLRLSCAASGRIFLQYDMGWYRQAPGKERELVAGISSRGGSMYYADSVKGRFTISRDNAKNTVYLQMNSLKPEDTAVYYGAAQTKRIRYVYKHYYWGQGTQVTVSS | high polyreactivity |
| QVQLVESGGGLVQAGGSLGLSCAASGFIFSSNAMGWYRQARGKERELVAAITSGGGRTYSADSVKRRFTISRDNAKNTVYLQKNSLKPEDTAVYYCNAEQWQSSEYGEWSKRDYWGQGTQVTVSS | low polyreactivity |
| QVQLVESGVGLVQAGGSLRLICAASGMTFDNYAMGWYRQAPGKERELVAAITSGDGTYYADSVKGRFTISRDNAKNTVYLQMNSLKPEDTAVFYCAVQGSRTENYDWYYYWGQGTQVTVSS | low polyreactivity |
| QVQLVESGGGLVQAGGSLRLSCAASGFIFAPYAMGWYRQAPGKEREFVASITYGSDSTYYADSVKGRFTISRDNAKNTVYLQMNSLKPEDTAVYYCNREGWHYGPYGYWGQGTQVTVSS | low polyreactivity |
| QDQLVDSGGGLDQAGGSLRLSCAATGRTIGINAMGWYRQAPGKERELVAVISFGDGGTYSADSVKGRFTISRDNAKNTVYLQMNSLKPEDTAVYYCATDYQSTSVWGGHFVINPFDYWGQGTQVTVSS | low polyreactivity |
| QGQLVESGGGLVQAGGSLRLSCAASGLTFKGYAMGWYRQAPGKERELVAAITWDTGSTYYADSVKGRFTISRDNAKNTVYLQMNSLKPEDTAVYYCAAVGSTTTGVRRRGYWGQGTQVTVSS | high polyreactivity |
| QVQLVESGGGLVQAGGSLRLSCAASGFIFLRYGMGWYRQAPGKERELVASIDSTGGSTYADSVKGRFTISRDNAKNTVYLQMNSLKPEDTAVYYCAAAYYIVSQRDYWGQGTQVTVSS | low polyreactivity |
| QVQLVESGGGLFQAGGSLRLSCAASGRIFGPYAMGWYRQAPGKERELVATITLRGGSTYYADSVKGRFTISRDNAKNTVYLQMNSLKPEDTAVYYCNARYYSLVYRYDYWGQGTQVTVSS | high polyreactivity |
| QVQLVESGGGLVQAGGSLRLSCAASGSTFVGNAMGWYRQAPVKERELVATISNSGGHTFYADSVKGRFTISRDNAKNTVYLQMNSLKPEDTAVYYCAASTSGAIRRDGYWGQGTQVTVSS | low polyreactivity |
| QVQLVESGGGLVQAGGSLRLSCAASGRTFWVYAMGWYRQAPGKERELVAAINNGGSTTYADSVKGRFTISRDNAKNTVYLQMNSLKPEDTAVYYCAADSVKQVRYGNVGHDYWGQGTQVTVSS | low polyreactivity |
| QVQLVESGGCLVQAGGSLRLSCAASGGIFPGNAMGWYRQAPGKERELVATISYSGGSTYYADSVKGRFTISRDNAKNTVYLQMNSLKPEDTAVYYCAARGYKPTRSRRTEYGYWGQGTQVTVSS | high polyreactivity |
| QVQLVESGGGLVQAGGSLRLSCAASGSIFAVNAMGWYRQAPGKERELVAAISFGGGDTYYADSVKGRFTISRDNAKNTVYLQMNSLKPEDTAVYYCAADVITRGVKYLGQVAYEYWGQGTQVTVSS | low polyreactivity |
| QVQLVESGGGLVQAGGSLRLSCAASGSTFTYYAMGWYRQAPGKERELVAAITGGGSTNYADSVKGRFTISRDNAKNTVYLQMNSLKPEDTAVYYCAARTARYYYGWRYTGEYGYWGQGTQVTVSS | high polyreactivity |
| QVQLQESGGLVQAGGMRLSCEASGSVSYQEAMGWYRQAPGKERELVATISFGANTNYADIVKGRFTISRDNAKNTVYLQMNSLKPEDTAVYYCAAESLFDDYYGYWGQGTQVTVSS | low polyreactivity |

| Sequence | polyreactivity (PSR sort gate) |
| --- | --- |
| QVQLVESGGGLLQAGGSLRLSCAASGSISGYYAMGWYRQAPGKERELVASIRYTGARTYYADSVKGRFTISRDNAKNTVYLQMNSLKPEDTAVYYCAADVKRDRVWGGDYWGQGTQVTVSS | low polyreactivity |
| QVQLVESGGGLVQAGGSLRLSCAASGSTFVGYAMGWYSPAPGKERELVADIDSIGGSTYYADSVKGRFTISRDYANNTVYLQINSLKPEDTAVFYCAARRFDTALVLYDYWGPGTQVTVSS | low polyreactivity |
| QVQLVESGGGLFQAGGSLRLSCAASGRIFGAYTMGWYRQAPGKERELVAAISDGGDTYYADSVKGRFTISRDNAKNTVYLQMNSLKPEDTAVYYCAADAPYYAYYWYPSSLGIYGYWGQGTQVTVSS | low polyreactivity |
| QVQLVESGGGLVQAGGSLRLSCAASGFTVFYNAMGWYRQAPGKERELVAAITARGGGTYYADSVKGRFTISRDNAKNTVYLQMNSLKPEDTAVYYCAADSFIPPYDHWGQGTQVTVSS | low polyreactivity |
| QVQLVESGVGLVQAGGSLRLICAASGSTFYYYAMGWYRQAPGKEREFVAAISSSTGSTYYADSVKGRFTISRDNAKNTVYLQLNSLKPEDTAVYYCNALTWYTSQDYDYWGQGTQVTVSS | high polyreactivity |
| QVQLVESGAGLVQAGGSLRLSCAASGIILRYYALGWYRQAPGKERELVAAISSGGRTYYADSVKGRFTISRDNAKNPVNLLMNSLTPEDTEVYSCAADDTRGREEYDYWGQGTQVTGSS | high polyreactivity |
| QVQLVESGGGLVQAGGSLRLSCAASGRIFMPYAMGWYRQARGKERELFAAITSTGGSTYYADSVKGRFTISRDNAKNTVYIQMNSQKPEDTAVYYCNARRGYQPHRRDYWGQGTQVTLSS | low polyreactivity |
| QVQLVESGGGLVQAGGSLRLSCAASGSTFGYYAMGWYRQAPGKERELVAAITYSGGGTYYADSVKGRFTISRDNAKNTVYLQMNSLKPEDTAVYYCAATIPYSLYGYDYWGQGTQVTVSS | low polyreactivity |
| QVHLVESGGGLVQAGGSLLLSCAASGFTFTAYAMGWYRQAPGKERELVAAISYRGGRTNYAYSVKGRFTISRDNAKNTVYLQMNSLKPEDTAVYYCASRQGISTREMDYWGQGTQVTVSS | high polyreactivity |
| QVQLVESGGGLVQAGGSLRLSCAASGSTFKRYAMGWYRQAHGKERELVAAISRRGGSTYYADSVKGRFTISRDNAKNTVYLQMNSLKPEDTAVYYCAARGTGNIYDYWGQGTQVTVSS | high polyreactivity |
| QVQLVESGGGLVQAGGSLRLSCAASGFTFRYYAMGWYRQAPGKERELVAAITSGDSTYYADSVKGRFTISRDNAKNTVYLQMNSLKPEDTAVYYCAAYYYGYDYWGQGTQVTVSS | high polyreactivity |
| QVQLVETGGGLVQAGGSLRLSCAASGSIFYAYAMGWYRQAPGKERELVATITSGGSTNYADSVKGRFTISRDNAKNTVYLQMNSLKPEDTAVYYCAVDISYSLGGGFGYDYWGQGTQVTVSS | low polyreactivity |
| QVQLVESGGGLVQAGGSLRLSCAASGYIFGVYAMGWYRQAPGKERELVAAISYGVGSTYYADSVKVRFTISRDNAKNTVYFQMNSLKPEDTAVYYCAADVFFYVYEAYLLYYWGQGSQVTVSS | low polyreactivity |
| QVQLVESGGGLVQAGGSLRLSCAASGRIFGFNAMGWYRQAPGKERELVAGITDSSGRTNYADSVKGRFTISRDNAKNTVYLQMNSLKPEDTAVYYCAKDGLVIPADGSDYWGQGTQVTVSS | low polyreactivity |
| QVQLLESAGGLVQAGGSLRLSCAASGFIYIPYAMGWYRQAPGKERELVAAISTRGGGTYYADSVKGRFTISRDNAKKPVYLQMNSVKPEDTAVYYCNKQAFYNGRVGYDYWGQGTQVTVSS | low polyreactivity |
